Test system: CXCR4-B16 cells
Assay: adhesion of CXCR4-B16 cells to resting DMEC in parallel plate flow chamber
Assay type: cell-based, murine
Details: exogenously added chemokine
Experimental: Prior to interaction with tumor cells, resting confluent DMEC or LMEC were exposed to 100 ng/ml of recombinant CXCL12 or CCL21 for 15 min at 20° C. as described (Cinamon et al., Nat. Immunol. 2: 515-22 (2001)). After unbound chemokine was washed away, calcein-AM-labeled (Molecular Probes, Eugene, Oreg.) CXCR4- or pLNCX2-B16 cells (2.5×10^5/ml in B16 medium) were injected at 1.5 dynes/cm^2 into a parallel plate flow chamber (Glycotech, Gaithersburg, Md.) containing confluent DMEC or LMEC. In some cases, tumor cells were treated with pertussis toxin (PTX, Calbiochem, San Diego, Calif.) at 100 ng/ml for 2 hours at 37° C. to block Gi-protein-coupled signaling. After two min, flow was stopped, which enabled B16 cells to interact with MEC in the absence of shear stress. After 5 min, shear was re-established at 1.5 dynes/cm^2 for up to 2 min in order to detach unbound cells; adherent cells were digitally photographed in 5-6 random fields (each field=1.18 mm^2) with excitation at 488 nm and emission at 513 nm using sufficient exposure time (˜1 s) to allow distinction between non-moving and moving cells (which appeared as dim streaks) (Fitzhugh et al. (2000), supra). Cells were then counted with the software program IPlab (Scanalytics, Fairfax, Va.). […]

B1: CCL21: recombinant chemokine used as control on DMEC (protein, UniProt O00585 24-134, looked up)
C-C motif chemokine 21: SDGGAQDCCLKYSQRKIPAKVVRSYRKQEPSLGCSIPAILFLPRKRSQAELCADPKELWVQQLMQHLDKTPSPQKPAQGCRKDRGASKTGKKGKGSKGCKRTERSQTPKGP
  stimulation of adhesion of CXCR4-B16 cells to DMEC: no effect

Reference: patent US20040132642A1, “Methods of inhibiting metastasis or growth of a tumor cell” (Government of the U.S.A., represented by the Secretary, …, priority 2002, published 2004)
